This passage reports Kd results from paper PMC12599243, “Mechanistic insights into DNA binding by BD1 of the TAF1 tandem bromodomain module”.

The test system of the series is TAF1 tandem bromodomain N1460F (human). The experiment in a line: EMSA. To be noted: no peptide; EMSA: 50 mM HEPES pH 7.5, 100 mM NaCl, 35 nM DNA, 1 h at 4 C; 6% native PAGE, 0.5x TBE, 100 V on ice. HeLa mononucleosome pulldown (undefined DNA) not listed. Background: In EMSA bound probe runs differently from free probe, usually more slowly.

147 bp Widom 601 DNA had a Kd of 18.2 µM.

In general, Kd refers to a measure of binding affinity in units of concentration. Read a low Kd as tighter binding.
